T1: trypsin inhibitor type IV-0 (Ovo-inhibitor), Sigma T-1886 (UniProt P10184)
T1 sequence: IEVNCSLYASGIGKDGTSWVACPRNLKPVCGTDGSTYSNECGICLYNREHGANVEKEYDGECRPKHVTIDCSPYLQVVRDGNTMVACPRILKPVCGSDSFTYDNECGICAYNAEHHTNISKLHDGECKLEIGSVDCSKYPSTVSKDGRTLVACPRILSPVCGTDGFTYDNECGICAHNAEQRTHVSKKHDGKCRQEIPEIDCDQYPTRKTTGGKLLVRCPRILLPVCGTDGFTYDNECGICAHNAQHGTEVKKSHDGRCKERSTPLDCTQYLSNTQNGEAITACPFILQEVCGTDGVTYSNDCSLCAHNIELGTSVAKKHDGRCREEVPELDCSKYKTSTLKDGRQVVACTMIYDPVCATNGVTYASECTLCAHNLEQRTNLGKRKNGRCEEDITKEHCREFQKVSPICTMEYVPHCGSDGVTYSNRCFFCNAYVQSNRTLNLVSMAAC

T2: trypsin inhibitor type IV-0 (Ovo-inhibitor), Sigma T-1886, P10184
T2 chain: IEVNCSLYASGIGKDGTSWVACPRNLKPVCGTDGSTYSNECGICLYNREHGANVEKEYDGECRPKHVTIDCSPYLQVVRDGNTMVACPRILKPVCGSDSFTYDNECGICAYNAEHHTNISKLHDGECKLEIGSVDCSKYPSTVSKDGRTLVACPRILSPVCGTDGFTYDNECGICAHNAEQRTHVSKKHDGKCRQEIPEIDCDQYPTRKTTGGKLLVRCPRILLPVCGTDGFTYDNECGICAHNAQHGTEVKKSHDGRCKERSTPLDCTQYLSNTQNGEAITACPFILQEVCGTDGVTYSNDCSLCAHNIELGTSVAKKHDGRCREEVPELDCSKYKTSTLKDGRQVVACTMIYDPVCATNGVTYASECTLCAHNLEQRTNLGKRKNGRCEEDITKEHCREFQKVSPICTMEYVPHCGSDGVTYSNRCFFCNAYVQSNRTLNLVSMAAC

B1: Savinase® (subtilisin 309 from B. lentus, BLSAVI) (protein)
chain: AQSVPWGISRVQAPAAHNRGLTGSGVKVAVLDTGISTHPDLNIRGGASFVPGEPSTQDGNGHGTHVAGTIAALNNSIGVLGVAPSAELYAVKVLGASGSGSVSSIAQGLEWAGNNGMHVANLSLGSPSPSATLEQAVNSATSRGVLVVAASGNSGAGSISYPARYANAMAVGATDQNNNRASFSQYGAGLDIVAPGVNVQSTYPGSTYASLNGTSMATPHVAGAAALVKQKNPSWSNVQIRNHLKNTATSLGSTNLYGSGLVNAEAATR

biological target: T1, trypsin inhibitor type IV-0 (Ovo-inhibitor), Sigma T-1886

Compared with “Savinase variant A98AI+A98G+S99H+G100S+S101A”, “Savinase variant A98AT+Y167A+R170S+A194P” is higher in Residual Activity (%): 22% for the first, 88% for the second.

Savinase variant S99SD and Savinase variant S99SD+M222S are the same in Residual Activity (%): 25% for the first, 25% for the second.

Compared with Savinase variant S99SD+N76D+A194P+A230V, Savinase variant S99SD+S99A is higher in Residual Activity (%): 18.4% for the first, 27.3% for the second.

Compared with Savinase variant S99SD+S99A+A133E, Savinase variant S99SD+S99A+D42DN is higher in Residual Activity (%): 39% for the first, 69.2% for the second.

Going from “Savinase variant S99SD+S99A+L217F+A228V+A230V” to Savinase variant S99SD+S99A+L217LP, the Residual Activity (%) rises from 12% to 97%.

First: Savinase variant S99SD+S99A+P129PD
Second: Savinase variant S99SD+S99A+P129PR
The Residual Activity (%) of the first is higher: 50% for the first, 21% for the second.

Going from Savinase variant S99SD+S99A+P131T to Savinase variant S99SD+S99A+S216SDP, the Residual Activity (%) falls from 35.6% to 35%.

Compared with Savinase variant S99SD+S99A+S216SP, Savinase variant S99SD+S99A+T143K is lower in Residual Activity (%): 29.2% for the first, 23% for the second.

First: Savinase variant S99SE
Second: Savinase variant S99SN
The Residual Activity (%) of the first is higher: 27% for the first, 19% for the second.

First: Savinase variant S99SQ+S99T
Second: Savinase variant S99SR+S99T
The Residual Activity (%) of the first is lower: 25% for the first, 67.7% for the second.

Biological target: T2, trypsin inhibitor type IV-0 …

With B1 the “Residual Activity (%)” value was less than 5%.
